This note sets out measurements from the DeepSol protein solubility set.

The nature of this data set: soluble on expression in E. coli; label from the status in PepcDB or PDB records.
As to “MGSDKIHHHHHHMIIKNRFTDEIEDAYLDYGSPPPEWQTVQNAAESLRSMPTDQLQSSAKSVFDYIRQNMDAILPRISRTTGKPMRYLRLEVDRSLSETGKIVVMDEPMFHDIPQYSVVYPNYQDPVSSLIVPSIFFLLNRVPVIVVPDRYAFLVPSLIYKAFASSGLPSGSFSISNGGIPEGFPSTRYAVSYSTDAMPEAAPGSGTLHADRGGPSMAVVWKDADVDFAAQNLVDSVIERHSIFLRSIVVHDEIFEYFVNRLKDLLPSIVAGDPEDLSTQLGPCASDIDLIRSLNMIAEARRARSIIYSKGPQGNIITPTIINGEITDMDDMVYTPVYILHHASSMEEVFELVSKVGPEALALYSSDSMLFRMVLSRTSAKYIGLNSYPEISYKPPISIPRRGLYL”, the “soluble on expression in E. coli” value is recorded as “not soluble”.
For “MPPPNKRQKHARICGFMGTLARKKKEIEQQEALMKLHNLPLTYTEDQYKIVKEESTIYKNRFETAAAKNVELLKATDELKKELEFLKRQPGNQFKVDKKLKSEIDSAEEESKFYKNCFETTAAENVELLKVTDQLKKELEFLKAQQGNQFKVDMKIKSEMESATQSNLILLREKEMWKDRFNDVLSEKLALSARIRNVIGDRSESVEVPNDSNRDIWELREDLEMERSARRKAEEELKILKMTSSRGSMHISRDSTNQTPNEILLSMAIRLDSTSSN”, the “soluble on expression in E. coli” value is on record as “not soluble”.
With “MSKATYKERAATHPSPVAAKLFNIMHEKQTNLCASLDVRTTKELLELVEALGPKICLLKTHVDILTDFSMEGTVKPLKALSAKYNFLLFENRKFADIGNTVKLQYSAGVYRIAEWADITNAHGVVGPGIVSGLKQAAEEVTKEPRGLLMLAELSCKGSLATGEYTKGTVDIAKSDKDFVIGFIAQRDMGGRDEGYDWLIMTPGVGLDDKGDALGQQYRTVDDVVSTGSDIIIVGRGLFAKGRDAKVEGERYRKAGWEAYLRRCGQQN” the entry was “soluble”; with “MLSRKIIEESDIYLATSTRDPELFPLVIDHGEGVWIYDVDGNKYLDFTSGIGVNNLGWPSHPEVIKIGIEQMQKLAHAAANDFYNIPQLELAKKLVTYSPGNFQKKVFFSNSGTEAIEASIKVVKNTGRKYIIAFLGGFHGRTFGSISLTASKAVQRSIVGPFMPGVIHVPYPNPYRNPWHINGYENPSELVNRVIEFIEDYIFVNLVPPEEVAGIFFEPIQGEGGYVIPPKNFFAELQKLAKKYGILLVDDEVQMGLGRTGKLFAIENFNTVPDVITLAKALGGGIMPIGATIFRKDLDFKPGMHSNTFGGNALACAIGSKVIDIVKDLLPHVNEIGKIFAEELQGLADDVRGIGLAWGLEYNEKKVRDRIIGESFKRGLLLLPAGRSAIRVIPPLVISEEEAKQGLDILKKVIKVVK”, “soluble”; with “MKKVYIKTFGCQMNEYDSDKMADVLGSAEGMVKTDNPEEADVILFNTCSVREKAQEKVFSDLGRIRPLKEANPDLIIGVGGCVASQEGDAIVKRAPFVDVVFGPQTLHRLPDLIESRKQSGRSQVDISFPEIEKFDHIPPAKVDGGAAFVSIMEGCSKYCSFCVVPYTRGEEVSRPFEDVLTEIAGLAAQGVKEITLLGQNVNAYRGLMSDGEIADFALLLEYVHEVPGVERIRFTTSHPREFSQRIIDCYAKLPKLVSHLHLPVQSGSDRVLMAMKRGYTGLEYKSIIRKLRAIRPDLCLSSDFIIGFPGETEADFEQTLKLVRDCEFDFSFVFIYSPRPGTPAANLPDDTPHAEKVRRLEALNEVIEAKGYAINQSMVGTVQRVLVENVSKKDATMLAARTANNRVVNFAGHPRLLGRMIEVKITAAFPHSLAGEALTSESALEHHHHHH”, “soluble”.
As to “ARKRFAGLEPVEMRMEVKAGDHGNTIINDVYSNDVYSLTLALDFQRRRTAETCLKKVLILSDILQSGMPPEELYRHVAGQLQVYALDFFVGIGEEIASHRTCFAGMSAVFFKDVATFLTSGEIERFSNSCILLKGARKYRFEQITERLVQQVH”, the “soluble on expression in E. coli” value is “not soluble”.
As for “GPGSMSFAQNGTAPSTPAQQSKPEPDASPVAGEGSTSGRCAFDPEALRNLIVNYLPPLMNEAQVYELFGQFGRIESVKIIYDKITGESRGYGFVKYYFFFSATYAVSCLNRFEIGGKKLKVAYANAPAAKEAYDMLRLSAVALSVQQQQAMQSMYYHQMVLAQEQQGASAASSVAASAPMVGGADYGPYMNRVGGGYAMRQRESGAGYAQGMYPGMVAGGSVYLAGPFASGSRIVTPAIAPIGF”, the “soluble on expression in E. coli” value is “not soluble”.
The result for “SDPRGTKRGAEKTEVAEPRNKLPRPAPSLPTDPALYSGPFPFYRRPSELGCFSLDAQRQYHGDARALRYYSPPPTNGPGPNFDLRDGYPDRYQPRDEEVQERLDHLLCWLLEHRGRLEGGPGWLAEAIVTWRGHLTKLLTTPYERQEGWQLAASRFQGTLYLSEVETPNARAQRLARPPLLRELMYMGYKFEQYMCAGELPLLHSPLPLPRG” reads “soluble”.
On to “MYNVMITGAGKIGSLIACLLADSGSYQVHLADLEFNGSDVTRLLTALPEIKTVALDVKDEQSTQAYLQKHNIIAVISSLPYFLNTHVAKAAKAAKAHYFDLTEDTSVTEAVKAIAQNAETAFVPQCGLAPGFISIAANSLMQEFEKCHHARLRVGALPQRANNALHYSLTWSTDG”, for which the “soluble on expression in E. coli” value is listed as “not soluble”.
“MKIRSPIVSVLGHVDHGKTTLLDHIRGSAVASREAGGITQHIGATEIPMDVIEGICGDFLKKFSIRETLPGLFFIDTPGHEAFTTLRKRGGALADLAILIVDINEGFKPQTQEALNILRMYRTPFVVAANKIDRIHGWRVHEGRPFMETFSKQDIQVQQKLDTKVYELVGKLHEEGFESERFDRVTDFASQVSIIPISAITGEGIPELLTMLMGLAQQYLREQLKIEEDSPARGTILEVKEETGLGMTIDAVIYDGILRKDDTIAMMTSKDVISTRIRSLLKPRPLEEMRESRKKFQKVDEVVAAAGIKIVAPGIDDVMAGSPLRVVTDPEKVREEILSEIEDIKIDTDEAGVVVKADTLGSLEAVVKILRDMYVPIKVADIGDVSRRDVVNAGIALQEDRVYGAIIAFNVKVIPSAAQELKNSDIKLFQGNVIYRLMEEYEEWVRGIEEEKKKKWMEAIIKPASIRLIPKLVFRQSKPAIGGVEVLTGVIRQGYPLMNDDGETVGTVESMQDKGENLKSASRGQKVAMAIKDAVYGKTIHEGDTLYVDIPENHYHILKEQLSGDLTDEELDLMDKIAEIKRKKNPDWGMKAPF”: the “soluble on expression in E. coli” value was “soluble”.
In the case of “MGSDKIHHHHHHLELPLPPPGEDIVGQVHVIKAKYEDTFADIGTANDLGYLEMIAANPGVDPWLPGAGTEIILPTRFVLPPGPREGIVINLAEYRMYYFPKGESVVYTFPLGIGREGWGSPIANTRITAKTPNPTWTPPASIRKEHAEDGDILPTVVPAGPDNPLGPFKFTLGVPGYLIHGSNKKFGIGMRTSHGCFRMFNNNVLELSKMVPVGTPVRIINEPYKFGISAGKVYLEAHTPLDDQGNPSVVDKHTAVINALLKREDLANNLRMNWDMVRDVVAAEDGMPVEIAVPVENQGAAPMVTSIPPELQ”, the “soluble on expression in E. coli” value is recorded as “not soluble”.
Turning to “MKKFFRFQLCCICLLVLIVSACKVKRPDSVISESEMENLLYDYHIAKAMGENMPGGENYKKALYVEAVFKKYGTTEEVFDSSMVWYTRNTKILSEIYEKVNKRLKAQQNAINHLIALRDNKPKMSAPGDSINVWAWQRIAQLTEAPLNNKFTFTLPSDTNFKKRDVLLWKMQYNFLSEIPDSTMAPIMAMQIVYENDTVTHSCVKHIFKSGIQNIRLQSDTMNIKEIKGFIFCPLSEESITLLVSDISLTRYHANDSITQISKDSLKTDSIKEKSKNDSIQKKTPKDTIQASSSHQRTNPNDLNRPNNDVRPIKPEQREKEMQIEKEKQQLERQQRTNPRRPLRRQNN”, the “soluble on expression in E. coli” value is recorded as “not soluble”.
The result for “MGHHHHHHSHMPKVKRSRKAPQDGWELIEPTLDQLDQKMREAETEPHEGKRKVESLWPIFRIHHQKTRYIFDLFYKRKAYSRELLDICYKEGLADKNLLAKWKKQGIGNLCCLRCIQTRDTNFGTNCICRVPKSKLEVGRIIECTHCGCRGCSG” reads “not soluble”.
